Laboratory results reported in publication PMC7367873, “Dissecting the sequence determinants for dephosphorylation by the catalytic subunits of phosphatases PP1 and PP2A” (Nature Communications, 2020).

B1: RHPN2 (protein, UniProt Q8IUC4 1-686, looked up)
Rhophilin-2: MTDALLPAAPQPLEKENDGYFRKGCNPLAQTGRSKLQNQRAALNQQILKAVRMRTGAENLLKVATNSKVREQVRLELSFVNSDLQMLKEELEGLNISVGVYQNTEEAFTIPLIPLGLKETKDVDFAVVLKDFILEHYSEDGYLYEDEIADLMDLRQACRTPSRDEAGVELLMTYFIQLGFVESRFFPPTRQMGLLFTWYDSLTGVPVSQQNLLLEKASVLFNTGALYTQIGTRCDRQTQAGLESAIDAFQRAAGVLNYLKDTFTHTPSYDMSPAMLSVLVKMMLAQAQESVFEKISLPGIRNEFFMLVKVAQEAAKVGEVYQQLHAAMSQAPVKENIPYSWASLACVKAHHYAALAHYFTAILLIDHQVKPGTDLDHQEKCLSQLYDHMPEGLTPLATLKNDQQRRQLGKSHLRRAMAHHEESVREASLCKKLRSIEVLQKVLCAAQERSRLTYAQHQEEDDLLNLIDAPSVVAKTEQEVDIILPQFSKLTVTDFFQKLGPLSVFSANKRWTPPRSIRFTAEEGDLGFTLRGNAPVQVHFLDPYCSASVAGAREGDYIVSIQLVDCKWLTLSEVMKLLKSFGEDEIEMKVVSLLDSTSSMHNKSATYSVGMQKTYSMICLAIDDDDKTDKTKKISKKLSFLSWGTNKNRQKSASTLCLPSVGAARPQVKKKLPSPFSLLNSDSSWY
B2: KIF5B (protein, UniProt P33176 2-963, looked up)
Kinesin-1 heavy chain: ADLAECNIKVMCRFRPLNESEVNRGDKYIAKFQGEDTVVIASKPYAFDRVFQSSTSQEQVYNDCAKKIVKDVLEGYNGTIFAYGQTSSGKTHTMEGKLHDPEGMGIIPRIVQDIFNYIYSMDENLEFHIKVSYFEIYLDKIRDLLDVSKTNLSVHEDKNRVPYVKGCTERFVCSPDEVMDTIDEGKSNRHVAVTNMNEHSSRSHSIFLINVKQENTQTEQKLSGKLYLVDLAGSEKVSKTGAEGAVLDEAKNINKSLSALGNVISALAEGSTYVPYRDSKMTRILQDSLGGNCRTTIVICCSPSSYNESETKSTLLFGQRAKTIKNTVCVNVELTAEQWKKKYEKEKEKNKILRNTIQWLENELNRWRNGETVPIDEQFDKEKANLEAFTVDKDITLTNDKPATAIGVIGNFTDAERRKCEEEIAKLYKQLDDKDEEINQQSQLVEKLKTQMLDQEELLASTRRDQDNMQAELNRLQAENDASKEEVKEVLQALEELAVNYDQKSQEVEDKTKEYELLSDELNQKSATLASIDAELQKLKEMTNHQKKRAAEMMASLLKDLAEIGIAVGNNDVKQPEGTGMIDEEFTVARLYISKMKSEVKTMVKRCKQLESTQTESNKKMEENEKELAACQLRISQHEAKIKSLTEYLQNVEQKKRQLEESVDALSEELVQLRAQEKVHEMEKEHLNKVQTANEVKQAVEQQIQSHRETHQKQISSLRDEVEAKAKLITDLQDQNQKMMLEQERLRVEHEKLKATDQEKSRKLHELTVMQDRREQARQDLKGLEETVAKELQTLHNLRKLFVQDLATRVKKSAEIDSDDTGGSAAQKQKISFLENNLEQLTKVHKQLVRDNADLRCELPKLEKRLRATAERVKALESALKEAKENASRDRKRYQQEVDRIKEAVRSKNMARRGHSAQIAKPIRPGQHPAASPTHPSAIRGGGAFVQNSQPVAVRGGGGKQV
B3: BAIAP2 (protein, UniProt Q9UQB8 1-552, looked up)
BAR/IMD domain-containing …: MSLSRSEEMHRLTENVYKTIMEQFNPSLRNFIAMGKNYEKALAGVTYAAKGYFDALVKMGELASESQGSKELGDVLFQMAEVHRQIQNQLEEMLKSFHNELLTQLEQKVELDSRYLSAALKKYQTEQRSKGDALDKCQAELKKLRKKSQGSKNPQKYSDKELQYIDAISNKQGELENYVSDGYKTALTEERRRFCFLVEKQCAVAKNSAAYHSKGKELLAQKLPLWQQACADPSKIPERAVQLMQQVASNGATLPSALSASKSNLVISDPIPGAKPLPVPPELAPFVGRMSAQESTPIMNGVTGPDGEDYSPWADRKAAQPKSLSPPQSQSKLSDSYSNTLPVRKSVTPKNSYATTENKTLPRSSSMAAGLERNGRMRVKAIFSHAAGDNSTLLSFKEGDLITLLVPEARDGWHYGESEKTKMRGWFPFSYTRVLDSDGSDRLHMSLQQGKSSSTGNLLDKDDLAIPPPDYGAASRAFPAQTASGFKQRPYSVAVPAFSQGLDDYGARSMSRNPFAHVQLKPTVTNDRCDLSAQGPEGREHGDGSARTLAGR
B4: CCT2 (protein, UniProt P78371 2-535, looked up)
T-complex protein 1 subunit …: ASLSLAPVNIFKAGADEERAETARLTSFIGAIAIGDLVKSTLGPKGMDKILLSSGRDASLMVTNDGATILKNIGVDNPAAKVLVDMSRVQDDEVGDGTTSVTVLAAELLREAESLIAKKIHPQTIIAGWREATKAAREALLSSAVDHGSDEVKFRQDLMNIAGTTLSSKLLTHHKDHFTKLAVEAVLRLKGSGNLEAIHIIKKLGGSLADSYLDEGFLLDKKIGVNQPKRIENAKILIANTGMDTDKIKIFGSRVRVDSTAKVAEIEHAEKEKMKEKVERILKHGINCFINRQLIYNYPEQLFGAAGVMAIEHADFAGVERLALVTGGEIASTFDHPELVKLGSCKLIEEVMIGEDKLIHFSGVALGEACTIVLRGATQQILDEAERSLHDALCVLAQTVKDSRTVYGGGCSEMLMAHAVTQLANRTPGKEAVAMESYAKALRMLPTIIADNAGYDSADLVAQLRAAHSEGNTTAGLDMREGTIGDMAILGITESFQVKRQVLLSAAEAAEVILRVDNIIKAAPRKRVPDHHPC
B5: MPRIP (protein, UniProt Q6WCQ1 2-1025, looked up)
Myosin phosphatase …: SAAKENPCRKFQANIFNKSKCQNCFKPRESHLLNDEDLTQAKPIYGGWLLLAPDGTDFDNPVHRSRKWQRRFFILYEHGLLRYALDEMPTTLPQGTINMNQCTDVVDGEGRTGQKFSLCILTPEKEHFIRAETKEIVSGWLEMLMVYPRTNKQNQKKKRKVEPPTPQEPGPAKVAVTSSSSSSSSSSSIPSAEKVPTTKSTLWQEEMRTKDQPDGSSLSPAQSPSQSQPPAASSLREPGLESKEEESAMSSDRMDCGRKVRVESGYFSLEKTKQDLKAEEQQLPPPLSPPSPSTPNHRRSQVIEKFEALDIEKAEHMETNAVGPSPSSDTRQGRSEKRAFPRKRDFTNEAPPAPLPDASASPLSPHRRAKSLDRRSTEPSVTPDLLNFKKGWLTKQYEDGQWKKHWFVLADQSLRYYRDSVAEEAADLDGEIDLSACYDVTEYPVQRNYGFQIHTKEGEFTLSAMTSGIRRNWIQTIMKHVHPTTAPDVTSSLPEEKNKSSCSFETCPRPTEKQEAELGEPDPEQKRSRARERRREGRSKTFDWAEFRPIQQALAQERVGGVGPADTHEPLRPEAEPGELERERARRREERRKRFGMLDATDGPGTEDAALRMEVDRSPGLPMSDLKTHNVHVEIEQRWHQVETTPLREEKQVPIAPVHLSSEDGGDRLSTHELTSLLEKELEQSQKEASDLLEQNRLLQDQLRVALGREQSAREGYVLQATCERGFAAMEETHQKKIEDLQRQHQRELEKLREEKDRLLAEETAATISAIEAMKNAHREEMERELEKSQRSQISSVNSDVEALRRQYLEELQSVQRELEVLSEQYSQKCLENAHLAQALEAERQALRQCQRENQELNAHNQELNNRLAAEITRLRTLLTGDGGGEATGSPLAQGKDAYELEVLLRVKESEIQYLKQEISSLKDELQTALRDKKYASDKYKDIYTELSIAKAKADCDISRLKEQLKAATEALGEKSPDSATVSGYDIMKSKSNPDFLKKDRSCVTRQLRNIRSKSVIEQVSWDT
B6: ZYX (protein, UniProt Q15942 2-572, looked up)
Zyxin: AAPRPSPAISVSVSAPAFYAPQKKFGPVVAPKPKVNPFRPGDSEPPPAPGAQRAQMGRVGEIPPPPPEDFPLPPPPLAGDGDDAEGALGGAFPPPPPPIEESFPPAPLEEEIFPSPPPPPEEEGGPEAPIPPPPQPREKVSSIDLEIDSLSSLLDDMTKNDPFKARVSSGYVPPPVATPFSSKSSTKPAAGGTAPLPPWKSPSSSQPLPQVPAPAQSQTQFHVQPQPQPKPQVQLHVQSQTQPVSLANTQPRGPPASSPAPAPKFSPVTPKFTPVASKFSPGAPGGSGSQPNQKLGHPEALSAGTGSPQPPSFTYAQQREKPRVQEKQHPVPPPAQNQNQVRSPGAPGPLTLKEVEELEQLTQQLMQDMEHPQRQNVAVNELCGRCHQPLARAQPAVRALGQLFHIACFTCHQCAQQLQGQQFYSLEGAPYCEGCYTDTLEKCNTCGEPITDRMLRATGKAYHPHCFTCVVCARPLEGTSFIVDQANRPHCVPDYHKQYAPRCSVCSEPIMPEPGRDETVRVVALDKNFHMKCYKCEDCGKPLSIEADDNGCFPLDGHVLCRKCHTARAQT
B7: PPP1R12A (protein, UniProt O14974 1-1030, looked up)
Protein phosphatase 1 …: MKMADAKQKRNEQLKRWIGSETDLEPPVVKRQKTKVKFDDGAVFLAACSSGDTDEVLKLLHRGADINYANVDGLTALHQACIDDNVDMVKFLVENGANINQPDNEGWIPLHAAASCGYLDIAEFLIGQGAHVGAVNSEGDTPLDIAEEEAMEELLQNEVNRQGVDIEAARKEEERIMLRDARQWLNSGHINDVRHAKSGGTALHVAAAKGYTEVLKLLIQAGYDVNIKDYDGWTPLHAAAHWGKEEACRILVDNLCDMEMVNKVGQTAFDVADEDILGYLEELQKKQNLLHSEKRDKKSPLIESTANMDNNQSQKTFKNKETLIIEPEKNASRIESLEQEKVDEEEEGKKDESSCSSEEDEEDDSESEAETDKTKPLASVTNANTSSTQAAPVAVTTPTVSSGQATPTSPIKKFPTTATKISPKEEERKDESPATWRLGLRKTGSYGALAEITASKEGQKEKDTAGVTRSASSPRLSSSLDNKEKEKDSKGTRLAYVAPTIPRRLASTSDIEEKENRDSSSLRTSSSYTRRKWEDDLKKNSSVNEGSTYHKSCSFGRRQDDLISSSVPSTTSTPTVTSAAGLQKSLLSSTSTTTKITTGSSSAGTQSSTSNRLWAEDSTEKEKDSVPTAVTIPVAPTVVNAAASTTTLTTTTAGTVSSTTEVRERRRSYLTPVRDEESESQRKARSRQARQSRRSTQGVTLTDLQEAEKTIGRSRSTRTREQENEEKEKEEKEKQDKEKQEEKKESETSREDEYKQKYSRTYDETYQRYRPVSTSSSTTPSSSLSTMSSSLYASSQLNRPNSLVGITSAYSRGITKENEREGEKREEEKEGEDKSQPKSIRERRRPREKRRSTGVSFWTQDSDENEQEQQSDTEEGSNKKETQTDSISRYETSSTSAGDRYDSLLGRSGSYSYLEERKPYSSRLEKDDSTDFKKLYEQILAENEKLKAQLHDTNMELTDLKLQLEKATQRQERFADRSLLEMEKRERRALERRISEMEEELKMLPDLKADNQRLKDENGALIRVISKLSK

Key:
[1] = tested on: GFP-14-3-3β and its binding proteins; test: GFP-14-3-3β co-IP with LC-MS/MS label-free quantification, untreated versus PP1c-treated; parameters: species or system human; settings: PP1 vs untreated; LFQ intensities, replicates 1-3
[2] = tested on: GFP-14-3-3β; test: GFP-14-3-3β co-IP with LC-MS/MS, untreated GFP-14-3-3β versus GFP control (14-3-3 interactome); type: binding, human; settings: untreated vs GFP; LFQ intensities, replicates 1-3

| Molecule | Difference (log2), PP1 vs untreated [1] | Difference (log2), untreated vs GFP [2] |
| --- | --- | --- |
| B1 | -1.815 log2 | 5.43 log2 |
| B2 | -1.944 log2 | 3.573 log2 |
| B3 | -1.977 log2 | 2.991 log2 |
| B4 | -1.71 log2 | 0.06414 log2 |
| B5 | -1.951 log2 | 1.085 log2 |
| B6 | -2.012 log2 | -0.162 log2 |
| B7 | -1.93 log2 | 2.126 log2 |
